According to US20240336900A1, “METHODS AND COMPOSITIONS RELATED TO MODIFIED METHYLTRANSFERASES AND ENGINEERED BIOSENSORS” (BOARD OF REGENTS, THE UNIVERSITY OF TEXAS SYSTEM, priority 2023, published 2024):

Experiments:
[1] = Differential scanning fluorimetry; type: physicochemical; conditions: for Tm: 5 μM protein, SYPRO Orange
Procedure: Purified Nb4OMT variants in the concentration of 5 μM were prepared in 96-well low-profile PCR plates (ABgene, Thermo Scientific). 10×SYPRO® Orange (Molecular Probes) was added into each well and mixed prior to measurement in an RT-PCR machine (LightCycler 480, Roche). The protein melting experiments were carried out with a continuous temperature acquisition mode using 10 acquisitions per 1° C. in each cycle from 20° C. to 95° C. The melting curves of the Nb4OMT variants were monophasic and Tm values were derived using Boltzmann equation.

[2] = HPLC and LC/MS analysis of in vivo Nb4OMT reaction supernatant; type: cell-based, Escherichia coli
Procedure: Assay samples were filtered using a 0.2-um PTFE syringe filter prior to running the HPLC. The measurement of Norbelladine and 4-O'Methyl-norbelladine was performed using a Vanquish HPLC system (Thermo Fisher Scientific) equipped with a BDS Hypersil TM C18 (3.0×150 mm 2, 3 um) (Thermo Fisher Scientific) with detection wavelength 277 nm. The mobile phase consisted of 0.1% formic acid in water or 0.1% formic acid in acetonitrile over the course of 28 minutes under the following conditions: 10% organic (vol/vol) for 2 minutes, 10 to 30% organic (vol/vol) for 13 minutes, 30 to 90% organic (vol/vol) for 0.1 minutes, 90% organic (vol/vol) for 4.9 minutes, 90 to 10% organic (vol/vol) for 1 minute, and 10% organic (vol/vol) for 7 minutes. The flow rate was fixed at 0.8 ml min-1. A standard curve for norbelladine was prepared using synthesized norbelladine (see Chemical synthesis and NMR analysis of norbelladine). A standard curve for 4-O'Methyl-norbelladine was prepared using commercially available 4-O'Methyl-norbelladine.
Cells containing the plasmid expressing each Nb4OMT variant with the P150-RBS (RiboJ) promoter were transformed and plated onto an LB agar plate containing appropriate antibiotics. […]
Samples were analyzed using an Agilent 6530 Q-TOF LC-MS with a dual Agilent Jet Stream electrospray ionization source in positive mode. […]

[3] = Steady state kinetics of purified Nb4OMT variants; type: biochemical; conditions: for kcat: 3.5 nM enzyme, 500 μM SAM, 37° C., PBS pH 7.5; for Km: calculated by dividing kcat by kcat/Km
Procedure: Reactions for kinetics measurements were performed in triplicate for all enzyme variants. For each variant 1.5 ml reactions containing 3.5 nM of enzyme, 500 μM SAM, 2 mM CaCl2), and 15.625, 31.25, 62.5, 125, 250, or 500 μM norbelladine in PBS pH 7.5 were incubated at 37° C. for 4 hours. Every hour a 200 μl aliquot of each reaction was quenched by pipetting it into a 1.5 ml microcentrifuge tube with 20 μl of 2M HCl. The concentration of 4′-O-Methylnorbelladine was then determined using HPLC as described.
Kinetic data were fit in KinTek Explorer simulation and data fitting software v11 (Roy, 2018). The following minimal model was used as an input. Each line represents a step in the model and the forward reaction goes from left to right while the reverse reaction goes from right to left as written. • (1) E+S=ES • (2) ES=EP • (3) EP=E+P • (4) S=P2
3.5 nM enzyme and 15.625, 31.25, 62.5, 125, 250, and 500 M substrate. The output observable was defined as EP+P. Substrate oxidation was modeled in step (4) as irreversible with a best fit value from globally fitting data from all variants to derive k4=0.00547 min^−1.To get kout/Km and kcat: k−1, k−2, and k−3 were locked at 0 min-1 (irreversible reactions). k+3 was locked at 10,000 min-1 as to not limit the rate of turnover. k+1 and k+2 were used as variable parameters in the fitting. Under these conditions, k+2=kcat and k+1=kcat/Km. For estimates of 95% confidence intervals on kinetic parameters, confidence contour analysis was used with the FitSpace function in KinTek Explorer (Bhattacharya, 2015). Confidence contour plots are calculated by systematically varying a single rate constant and holding it fixed at a particular value while refitting the data, allowing other rate constants to float. The goodness of fit was scored by the resulting χ^2 value. The confidence interval is defined based on a threshold in χ^2 calculated from the F-distribution based on the number of data points and number of variable parameters to give the 95% confidence limits. For the data given in FIGS. 20A-20C, this threshold was 0.85 to estimate the upper and lower limits for each parameter. […] We then fit the data for these two variants to the model shown below, accounting for substrate inhibition.
As before, k+1 was allowed to float in the fitting to give kcat/Km, and k−1 was locked at 0 min^−1, k+2 was allowed to float in the fitting to give kcat, and k−2 was locked at 0 min^−1. k+3 was locked at 10,000 min^−1, and k−3 was locked at 0 min^−1. k+4 and k+6 were locked at 100 μM^−1 min^−1, and k−4 and k−6 were allowed to float in the fitting as linked parameters. k+5 was linked to k+1 and k−5 was locked at 0 min^−1. k−7 was locked at 0 min^−1, and k+7 was locked at 0.00547 min^−1.

[4] = Biosensor-linked O-methyltransferase activity assay; type: cell-based, Escherichia coli; conditions: single mutational designs; 25, 30, 37 °C; 100 uM, 1 mM norbelladine
Procedure: Nb4OMT was expressed with the P150-RBS (riboJ) promoter-RBS on the pReg-RamR plasmid backbone (no regulator present). Cells were co-transformed with both the 40MT plasmid and the 4NB reporter plasmid and plated on an LB agar plate containing appropriate antibiotics. Three individual colonies from each transformation were picked into LB and grown overnight. Resulting cultures were diluted 50-fold into 1 ml LB medium containing the indicated concentration of norbelladine in a 96-deep-well plate and were grown at the indicated temperature for 24 h. Subsequently, the fluorescence of cultures was measured in the same manner as previously described in Dose-response measurement above.

B1: Wild-type Nb4OMT: natural norbelladine 4′-O-Methyltransferase from Narcissus pseudonarcissus (protein)
chain: MGASIDDYSLVHKNILHSEDLLKYILETSAYPREHEQLKGLREVTEKHEWSSALVPADEGLFLSMLLKLMNAKRTIEIGVYTGYSLLTTALALPEDGKITAIDVNKSYYEIGLPFIQKAGVEHKINFIESEALPVLDQMLEEMKEEDLYDYAFVDADKSNYANYHERLVKLVRIGGAILYDNTLWYGSVAYPEYPGLHPEEEVARLSFRNLNTFLAADPRVEISQVSIGDGVTICRRLY
modifications: Description of sequence: Natural enzyme, norbelladine 4'-O-Methyltransferase
notes: natural norbelladine 4′-O-Methyltransferase from Narcissus pseudonarcissus
- Tm [1]: 52.8 °C
- regiospecificity ([2]; 3-OMe-norbelladine identified as minor component): not highly regiospecific
- kcat [3]: 1.22 s⁻¹
- Km [3]: 62 µM

B2: A53M mutant: Nb4OMT variant with mutation A53M (protein)
chain: MGASIDDYSLVHKNILHSEDLLKYILETSAYPREHEQLKGLREVTEKHEWSSMLVPADEGLFLSMLLKLMNAKRTIEIGVYTGYSLLTTALALPEDGKITAIDVNKSYYEIGLPFIQKAGVEHKINFIESEALPVLDQMLEEMKEEDLYDYAFVDADKSNYANYHERLVKLVRIGGAILYDNTLWYGSVAYPEYPGLHPEEEVARLSFRNLNTFLAADPRVEISQVSIGDGVTICRRLY
modifications: Description of sequence: Improved enzyme variant A53M
- increase in Tm relative to the wild-type enzyme [1]: 1.7 °C
- Tm [1]: 54.5 °C
- reduction of 3-O'Methyl-norbelladine off-product ([2]; relative to wild-type Nb4OMT): about 3 fold
- increase in keut relative to the wild-type enzyme [3]: > 2.1 fold
- increase of kcal/Km relative to the wild-type enzyme [3]: about 2 fold
- kcat [3]: >3.17 s⁻¹
- Km [3]: < 90 µM
- substrate inhibition ([3]; steady state kinetic data, highest norbelladine concentration): affected by substrate inhibition
- fluorescent signal relative to the wild-type enzyme [4]: significantly above the wild-type enzyme
